Values quoted from earlier work as cited in paper PMC3978290.
Several values for one entry are separate records, joined by “and”; a condition that tells them apart may be missing. Equal entries are not always repeated.

Legend:
C3b C3b (Homo sapiens) = C3b C3b (Homo sapiens) (UniProt P01024); assay: SPR
[1] = molecular target: C-reactive protein (Homo sapiens) (UniProt P02741); assay: SPR
C3u C3u (Homo sapiens) = C3u C3u (Homo sapiens) (UniProt P01024); assay: sedimentation velocity
[2] = molecular target: Complement factor H (Homo sapiens) (UniProt P08603); assay: sedimentation equilibrium

Complement factor H, sequence (P08603 19-1231): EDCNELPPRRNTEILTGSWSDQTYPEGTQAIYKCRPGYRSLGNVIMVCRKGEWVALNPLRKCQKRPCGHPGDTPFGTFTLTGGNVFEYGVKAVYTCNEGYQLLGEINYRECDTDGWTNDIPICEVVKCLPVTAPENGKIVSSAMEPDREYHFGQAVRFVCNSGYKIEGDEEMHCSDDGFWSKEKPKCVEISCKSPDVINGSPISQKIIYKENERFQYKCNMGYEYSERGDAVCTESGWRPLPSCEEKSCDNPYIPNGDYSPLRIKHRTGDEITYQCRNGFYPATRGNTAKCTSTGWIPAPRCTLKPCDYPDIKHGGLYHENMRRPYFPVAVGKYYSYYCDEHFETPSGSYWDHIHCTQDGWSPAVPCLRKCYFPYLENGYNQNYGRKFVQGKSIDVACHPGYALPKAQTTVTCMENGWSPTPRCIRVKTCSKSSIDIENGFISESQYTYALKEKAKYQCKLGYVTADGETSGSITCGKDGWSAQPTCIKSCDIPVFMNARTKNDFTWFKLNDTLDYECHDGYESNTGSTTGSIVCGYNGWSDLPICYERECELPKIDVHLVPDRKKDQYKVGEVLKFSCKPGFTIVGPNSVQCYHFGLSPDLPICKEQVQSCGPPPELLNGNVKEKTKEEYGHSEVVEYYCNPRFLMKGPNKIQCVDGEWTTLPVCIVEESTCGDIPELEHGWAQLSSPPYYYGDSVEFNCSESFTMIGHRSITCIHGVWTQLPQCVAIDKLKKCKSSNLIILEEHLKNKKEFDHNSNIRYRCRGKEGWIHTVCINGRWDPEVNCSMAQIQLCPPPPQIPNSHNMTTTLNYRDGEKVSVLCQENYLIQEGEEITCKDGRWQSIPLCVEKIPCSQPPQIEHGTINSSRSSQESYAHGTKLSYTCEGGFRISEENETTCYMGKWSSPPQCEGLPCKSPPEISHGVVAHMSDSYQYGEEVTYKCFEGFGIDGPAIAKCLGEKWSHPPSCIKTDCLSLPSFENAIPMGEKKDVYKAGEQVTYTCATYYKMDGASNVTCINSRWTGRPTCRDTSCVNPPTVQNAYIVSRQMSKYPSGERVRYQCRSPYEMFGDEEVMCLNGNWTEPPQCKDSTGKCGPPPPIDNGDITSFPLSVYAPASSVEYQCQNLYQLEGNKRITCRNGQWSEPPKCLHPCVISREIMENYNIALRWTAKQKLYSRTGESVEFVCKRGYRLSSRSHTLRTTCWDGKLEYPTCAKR
C3b C3b (Homo sapiens), sequence (P01024 566-670): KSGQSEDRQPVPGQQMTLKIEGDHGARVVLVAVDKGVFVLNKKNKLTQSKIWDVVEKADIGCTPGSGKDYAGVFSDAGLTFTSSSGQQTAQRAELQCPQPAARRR
Complement factor H SCR-19/20, sequence (P08603 1107-1231): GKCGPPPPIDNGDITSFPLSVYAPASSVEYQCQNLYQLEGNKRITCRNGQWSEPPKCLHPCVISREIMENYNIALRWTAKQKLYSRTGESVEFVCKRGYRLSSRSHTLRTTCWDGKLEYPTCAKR
Complement factor H SCR-1/4 SCR-1/4, sequence (P08603 19-264): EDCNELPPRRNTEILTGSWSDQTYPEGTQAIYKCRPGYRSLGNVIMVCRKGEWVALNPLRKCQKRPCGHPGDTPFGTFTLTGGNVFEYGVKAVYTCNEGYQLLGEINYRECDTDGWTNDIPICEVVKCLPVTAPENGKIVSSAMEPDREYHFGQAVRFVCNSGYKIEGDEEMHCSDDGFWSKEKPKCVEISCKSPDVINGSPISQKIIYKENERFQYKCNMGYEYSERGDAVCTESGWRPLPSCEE
C3u C3u (Homo sapiens), sequence (P01024 23-667, chain 1 of 2): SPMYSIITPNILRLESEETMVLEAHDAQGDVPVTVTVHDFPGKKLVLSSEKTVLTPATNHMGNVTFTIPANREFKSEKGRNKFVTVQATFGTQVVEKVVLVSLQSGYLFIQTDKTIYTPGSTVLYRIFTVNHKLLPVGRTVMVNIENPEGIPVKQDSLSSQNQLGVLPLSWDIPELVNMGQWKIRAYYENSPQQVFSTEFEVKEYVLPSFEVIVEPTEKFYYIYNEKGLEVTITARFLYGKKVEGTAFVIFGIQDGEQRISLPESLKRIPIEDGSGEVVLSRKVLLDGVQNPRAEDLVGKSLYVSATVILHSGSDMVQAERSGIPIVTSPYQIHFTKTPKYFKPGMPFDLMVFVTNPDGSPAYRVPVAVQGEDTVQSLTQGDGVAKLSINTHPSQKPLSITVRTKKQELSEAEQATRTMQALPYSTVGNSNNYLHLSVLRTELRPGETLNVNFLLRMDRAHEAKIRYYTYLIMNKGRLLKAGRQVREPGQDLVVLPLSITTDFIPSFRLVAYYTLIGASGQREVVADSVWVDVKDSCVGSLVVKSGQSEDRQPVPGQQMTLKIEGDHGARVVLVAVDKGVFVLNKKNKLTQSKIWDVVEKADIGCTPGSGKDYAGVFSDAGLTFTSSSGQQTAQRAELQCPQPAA
C3u C3u (Homo sapiens), sequence (P01024 672-1663, chain 2 of 2): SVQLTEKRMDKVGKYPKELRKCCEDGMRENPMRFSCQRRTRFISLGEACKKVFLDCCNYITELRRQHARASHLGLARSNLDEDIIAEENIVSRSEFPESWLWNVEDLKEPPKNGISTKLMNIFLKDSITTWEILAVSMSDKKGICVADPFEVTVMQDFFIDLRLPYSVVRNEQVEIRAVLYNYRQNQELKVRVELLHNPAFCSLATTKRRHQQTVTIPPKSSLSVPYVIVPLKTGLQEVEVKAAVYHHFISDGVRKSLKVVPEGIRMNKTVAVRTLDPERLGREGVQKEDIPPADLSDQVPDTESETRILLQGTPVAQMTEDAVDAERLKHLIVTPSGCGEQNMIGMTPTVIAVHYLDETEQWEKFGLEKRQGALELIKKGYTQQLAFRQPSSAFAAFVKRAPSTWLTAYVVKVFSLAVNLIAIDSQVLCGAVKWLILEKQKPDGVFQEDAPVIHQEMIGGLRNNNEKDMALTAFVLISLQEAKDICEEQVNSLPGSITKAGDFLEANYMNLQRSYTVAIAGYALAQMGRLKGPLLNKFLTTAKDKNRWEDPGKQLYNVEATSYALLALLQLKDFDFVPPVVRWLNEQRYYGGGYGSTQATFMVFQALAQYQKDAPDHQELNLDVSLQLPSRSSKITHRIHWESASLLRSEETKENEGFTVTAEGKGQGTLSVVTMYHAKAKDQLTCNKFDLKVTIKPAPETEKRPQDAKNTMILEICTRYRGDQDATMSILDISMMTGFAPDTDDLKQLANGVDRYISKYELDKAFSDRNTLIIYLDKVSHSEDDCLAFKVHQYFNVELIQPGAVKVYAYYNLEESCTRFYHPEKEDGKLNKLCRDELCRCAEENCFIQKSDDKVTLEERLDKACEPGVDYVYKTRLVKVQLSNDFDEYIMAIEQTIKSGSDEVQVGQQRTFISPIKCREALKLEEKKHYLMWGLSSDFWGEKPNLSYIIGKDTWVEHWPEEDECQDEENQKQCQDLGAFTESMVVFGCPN
C-reactive protein (Homo sapiens), sequence (P02741 19-223): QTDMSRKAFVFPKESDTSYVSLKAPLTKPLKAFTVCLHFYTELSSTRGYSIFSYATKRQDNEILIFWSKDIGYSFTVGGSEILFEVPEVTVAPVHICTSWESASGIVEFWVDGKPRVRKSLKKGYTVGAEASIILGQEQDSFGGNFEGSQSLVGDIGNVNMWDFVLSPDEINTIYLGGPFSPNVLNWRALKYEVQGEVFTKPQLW

| Kd (C3b C3b (Homo sapiens)) | Kd [1] [µM] | Kd (C3u C3u (Homo sapiens)) [µM] | Kd [2] [µM] | Substance |
| --- | --- | --- | --- | --- |
| 1.1 µM | 4.2 | 0.59 | 28 | Complement factor H (from UniProt P08603) |
| 11.7 µM and 11 µM | – | – | – | Complement factor H SCR-1/4 SCR-1/4 (from UniProt P08603) |
| 5.4 µM and 0.54 µM | – | – | – | Complement factor H SCR-19/20 (from UniProt P08603) |
